In this series the test system is HT22 nerve cell. In kind it is cell-based, Mouse.

For Botulinum Toxin Type A [Botox], the “induction of apoptosis in HT22 cells” value is given as “dose‐dependent induction of apoptosis” and the “necrocytosis of HT22 cells” value is on record as “neither RSI prion nor Botox induced necrocytosis”.
